Here are results for 29 sequences from a protein production outcome set (Wang et al. 2014).

A short description of this data set: label from the status in PepcDB records.
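Note: failed if final PepcDB status was selected cloned or expressed and not failed if soluble or beyond.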

Take “MGFLDKVEKSIEGAVSGVFARAFRGEVEPVEIAGRLQRELDSEAQILSRDKSLVPNDFVVRLSSRDYERLVPYTKTLNAEIIPTLRDHASERHYVFNGPIHIRYDLDDALPVGKFTVLTGENHAKAVSDRRAPLVLEVDGVRHPLTPPGLTIGRGSDADIRINDPGISRLHARINVWPQGNDIGLSIEDLDSTNGVTVNGVKVTSTELGDGSRIEIGSTRMLVHSPTRI”: the protein production entry is reported as “failed”.

For “MGFTDSIREHVREHRTGMVHDLMFAVVWVAIVNFLFSAVFTDAPSWAFYMFMLAGIPAYFGFFFSLSMARAQQDSQ”, the protein production entry is on record as “failed”. The result for “MGFTELNSVEHYIIHQISGVNLNDAQCKNQVSEPQATYALQWQFKSSEQLGRDVNEVLVESELVKALIRLNPEIEANPHLADEVIHKLRAILISVNQVGLVKANEEFFAWMTGEKTMPFGENNRHVPVKLIDLEDLTRNGYVVTNQFRIHHRETKIPDVVLMINGIPVVVGEAKTPIRPSVSWLDGAHEVHNIYENAVPQLFVPNILSFATEGKELFYGAIRCPLEFWAPWRTEEDDNSKGIGQVSKALGLTEIGKELIDLLSPVRLLDIMRNFSLFTTNKKKQRIKVIPRFQQYEGANKIVERVIEGKIKKGLIWHFQGSGKSLLMVFAAQKLRRTAQLKSPTVIVLVDRTDLDTQISGTFNAADVANVESTDSIKELQRMLERDTRKIIISMIHKFRDAKPNMNTRENIIVLVDEAHRTQEGDLGRQMRAALPNAFLFGLTGTPVNKADKNTFWAFGAEEDKGGYMSRYTFHDSIRDEATLPLHFEPRLVDVHVDKEALDKAFKDFKESAALSDEEADALNQKSAKMSAFLKSPERVEKIVEDIAIHFMDKVEPHGFKAMVVTPDREACVQYKEELDKHFPESASKVVISTSANDDFEFKQKWGVDKSQQEKLVDEFNDEKSDLKFLVVTAKLLTGFDAPICQTMYLDKSIKDHTLLQAICRTNRLYPNKTFGCIVDYFGVFDDAAKALEFDEESVQQVISNLSELRSKLPQAMQDTLAHFIGVDRSLEGFEGLEAAQNAIGDNDKKDAFALDFKYLAKLWESLSPDSVLDEYNEDYKWLAQVYESVKPASDNIGKLLWLALGAQTTQLIHDNVHVGDVHNLEEFVLDADVIENIFNNPDPRKIKQLEKELAKRFKDRGDLPVFKSLSERLEELRDKAEKGLIASIDFVKELCKIAKETVQAEKDLDDELQEKTPQAALTDLFLELKDDQTPAVVERIVTDIDAIVRIVRFPGWQTTTGGEREVQKSLRKALLKYKLHTDQTLFDRAYGYIKEYY” reads “failed”; that for “MGGATSGAVSSLNSRLALAHTPLLNTPQKPVDCRPHRTRTSDSAPMELHYRITPAHTEAWIAEPLKQELLKDDQQHVRAMSTFARWQSRFIGPVMFTLCLIGGCLSIYFPERNFTAEKVIAMVAFALIFIPLWWRFSGRWIKHLQARIAATPIKPQAPLRGLSQRLIETRLRAVEGTYCLNFDDQGFTLLNARGGQSSLAWKQIASVQEIPDFYLVADADMERQGVACFIAKHTDLMPTEAYQQGLQAFLSQCPAALPAH”, “failed”.

As to “MGGDLRKCSFIKLEAHQNRVMTCVWCNKKGLLATSGNDGTIRVWNVTKKQYSLQQTCVFNRLEGDAEESLGSPSDPSFSPVSWSISGKYLAGALEKMVNIWQVNGGKGLVDIQPHWVSALAWPEEGPATTWSGESPELLLVGRMDGSLGLIEVVDVSTMHRRELEHCYRKDVSVTCIAWFSEDRPFAVGYFDGKLLMGTKEPLEKGGIVLIDAHKVKTIFFMLAFLFCLVFCVYVF”, the protein production entry is reported as “failed”.

As for “MGGEDDELKGLLGLPEEETELDNLTEFNTAHNKRISTLTIEEGNLDIQRPKRKRKNSRVTFSEDDEIINPEDVDPSVGRFRNMVQTAVVPVKKKRVEGPGSLGLEESGSRRMQNFAFSGGLYGGLPPTHSEAGSQPHGIHGTALIGGLPMPYPNLAPDVDLTPVVPSAVNMNPAPNPAVYNPEAVNEPKKKKYAKEAWPGKKPTPSLLI”, the protein production result is reported as “not failed”. In the case of “MGGFRFHQYQVVGRALPTENDEHPKIYRMKLWGRNEVCAKSKFWYFMRKLKKVKKSNGQMLAINEIFEKNPTTIKNYGIWLRYQSRTGYHNMYKEYRDTTLNGGVEQMYTEMASRHRVRFPCIQIIKTATVPAKLCKREITKQFHNSKIKFPLVFRKVRPPSRKLKTTYKASKPNLFM”, the protein production result is “failed”. With “MGGLFVTPAKAVKTTNYAEEIAALQPGTTPEEIMKSASQIAKQQHVKQDVILKQFYKEITADKAEGDRLAKESGMSIMGGSSGTKKLPTSAKGNIYYTNSYTAYYNHGHVGMYSAADKIVESVPSDGVRQIAYNARDVEDNSIVQTVSVSSSQKTAAADWAVSKVGDPYSFNFVNNRNTGHDGAKNCSKLLWSAFLLKAGIDIDSNGGLGVYPRDITSSSYTTTIMTIYLEHHHHHH” the entry was “failed”; with “MGHHHHHHENLYFQSHERLSEKKIKNLLTSKQQRQQYEIKQRSMLRHLAELRRHSRFRRLCTKPASSSMPASTSSVDRRTTRRSTSQTSLSPSNSSGYGSVFGCEEHDVDKIPSLNGFAKLKRRRSSCVGAPTPNSKRSKNNMGVIAKRPPKGEYVVERIECVEMD”, “failed”; with “MGHHHHHHENLYFQSHINEQEREIEKLKRQMAEYGAIIKSLQFRQNSLEDTFIPDLTPKVEPSVNPTGCLLGSNAVHLMRDIKKECDYLGIPDPVPATKPTTQAQDDSQKKAKRSCFGRLFTGPFRRGTSAMKTADEYEKDDRLEELYAQLERDPDP”, “failed”.

With “MGHHHHHHSHCDSDCLWVGLAGPQILPPCRSIVRTLHQHKLGRASWPSVQQGLQQSFLHTLDSYRILQKAAPFDRRATSLAWHPTHPSTVAVGSKGGDIMLWNFGIKDKPTFIKGIGAGGSITGLKFNPLNTNQFYASSMEGTTRLQDFKGNILRVFASSDTINIWFCSLDVSASSRMVVTGDNVGNVILLNMDGKELWNLRMHKKKVTHVALNPCCDWFLATASVDQTVKIWDLRQVRGKASFLYSLPHRHPVNAACFSPDGARLLTTDQKSEIRVYSASQWDCPLGLIPHPHRHFQHLTPIKAAWHPRYNLIVVGRYPDPNFKSCTPYELRTIDVFDGNSGKMMCQLYDPESSGISSLNEFNPMGDTLASAMGYHILIWSQEEARTRK”, the protein production result is given as “failed”. The result for “MGHHHHHHSHGHAAVIGWKDLAYAGVIDSGGVCENIIAIPNPGTEPLNVAAVLCEGLDVVVYKGPEISLSPTRARPLLGKLRQGTAALVMVGTKVSSPALSVDAEITDYVGIGAGSGRIRGVEMQVRAVSKTHGVRSGKVLISRP” reads “failed”. With “MGHHHHHHSHGQLVRGKVCEYSTDGAYIDIGGKAPAFLPKREAALHAVLDLEAHLPKDEELEFLVIRDQNEDGQVTVSLRA” the entry was “failed”; with “MGHHHHHHSHGSYANEISSSIIINRPAERLFDLWRKPETLPILMGHFASIEILNHTDSNWRINTPIGSLIEWQARIIDEKPGEYIHWRSLEGARVPNEGRLSFQPAASEAGTAVTLTIRYNPPGGLIGKKIGQMFDMFSRDMLTKTLYRFKKLAEDER”, “not failed”. The result for “MGHHHHHHSHMALRDLCVVLLNGQHLEVKCDVESTVGAVFNAVTSFANLEELTYFGLAYMKSKEFFFLDSETR” reads “failed”. For “MGHHHHHHSHMATSRYEPVAEIGVGAYGTVYKARDPHSGHFVALKSVRVPNGGGGGGGLPISTVREVALLRRLEAFEHPNVVRLMDVCATSRTDREIKVTLVFEHVDQDLRTYLDKAPPPGLPAETIKDLMRQFLRGLDFLHANCIVHRDLKPENILVTSGGTVKLADFGLARIYSYQMALTPVVVTLWYRAPEVLLQSTYATPVDMWSVGCIFAEMFRRKPLFCGNSEADQLGKIFDLIGLPPEDDWPRDVSLPRGAFPPRGPRPVQSVVPEMEESGAQLLLEMLTFNPHKRISAFRALQHSYLHK”, the protein production entry is “failed”. Take “MGHHHHHHSHMEFIVDSVDKTMHIGRQLGSLVNKGDILCLTGDLGTGKTHISKGIAEGLGIDEHITSPTFNIVNEYHSGRLTLYHFDVYRVNDPDEIEAIGFDEYIFGDGVSLIEWANYIEELIPEEYIHIKIEKLPDMGENFRKITINGYGDRYNYIKEIKE”: the protein production result was “failed”. As for “MGHHHHHHSHMFASCHCVPRGRRTMKMIHFRSSSVKSLSQEMRCTIRLLDDSEISCHIQRETKGQFLIDHICNYYSLLEKDYFGIRYVDPEKQRHWLEPNKSIFKQMKTHPPY”, the protein production result is on record as “failed”. With “MGHHHHHHSHMGWDLTVKMLAGNEFQVSLSSSMSVSELKAQITQKIGVHAFQQRLAVHPSGVALQDRVPLASQGLGPGSTVLLVVDKSDEPLS” the entry was “failed”.

Consider “MGHHHHHHSHMLPVELVRHDVKKTDETSQVELMLQVDPDLFWFNGHFTGQPLLPGVAQLDWVMHYATTVLAQGWTFLSIENIKFQQPILPGKTLRLVLIWHAGKQSLTFSYSILEGDTERTASSGKIKLTPIMEDNPCQ”, for which the protein production result is “not failed”. With “MGHHHHHHSHMPQFSPSYSFPVQIYYEDTDFSGVVYHPNFLKYFERAREHVIGAEQLRNLWQQQQLGFAVYRSDMLCHEGVEFADIIDIRTKFYFESKYRTVWHQEIWRPNGKKPAVTATIEMVCMNQARQLAPMPAELITQLSLGM”, the protein production result was “not failed”.

In the case of “MGHHHHHHSHMSNAEDIRDLVVTFLEGLRKRSKYVVALQDNPNPAGEESGFLSFAKGDLIILDHDTGEQVMNSGWANGINERTKQRGDFPTDCVYVMPTVTMPPREIVA”, the protein production result is “failed”. With “MGHHHHHHSHMSPFLRIGLSNFDCGSCQSCQGEAVNPYCAVLVKEYVESENGQMYIQKKPTMYPPWDSTFDAHINKGRVMQIIVKGKNVDLISETTVELYSLAERCRKNNGKTEIWLELKPQGRMLMNARYFLEMSDTK”, the protein production entry was “not failed”. With “MGHHHHHHSHMTCGAWEMKERLGTGGFGNVIRWHNQETGEQIAIKQCRQELSPRNRERWCLEIQIMRRLTHPNVVAARDVPEGMQNLAPNDLPLLAMEYCQGGDLRKYLNQFENCCGLREGAILTLLSDIASALRYLHENRIIHRD” the entry was “failed”.

On to “MGHHHHHHSHNQEHQLGNNTLSSHLQIDKMTDNKTGEVLISENVVASIQPAEGSFEGDLKVPRMEEKEALVPIQKATDSFHTELHPRVAFWIIKLPRRRSHQDALE”, for which the protein production result is “failed”. “MGHHHHHHSHSGNIRLETAAETQAFAEELGRHLEAGDVIILDGPLGAGKTTFTQGLARGLNVKGRVTSPTFVIAREHKSLSGGPSLVHVDAYRLIDDAAGATDPIGALDSLDLETELEDAVVVAEWGGGLVEQITDSYLLITFDRT”: the protein production result is recorded as “not failed”. The result for “MGHHHHHHSHSLDSQKGQLVRGKVCEYSTDGAYIDIGGKAPAFLPKREAALHAVLDLEAHLPKDEELEFLVIRDQNEDGQVTVSLRALALEQAWTRVAELQEG” reads “not failed”; that for “MGHHKAMPYADVAAFIIELRKREAVAATALEFTILTAARSGETLGAKWHEIDWKDKIWTVPAERMKAAREHRVPLSSRTITILKKLAEFGSDENSFVFPGQKPGKPLSVMAMDMVLRRMEVDVTVHGFRSSFRDWCGEVSNFPRDVAEAALAHLEHHHHHH”, “not failed”. With “MGIFETMSQVRRLPQALAAAVATPPALAGSGTLRGLIGLDDSLGEAVTTRAEALTIPAVLRARNLLSTTVARTPLVCDGTLPPFVPVAAPPGAATMQTPFHRMLATADDLLFNGVACWALDRDESGTCIGAIHIPLDTWQIEENTVRVNGKAVDPMEVCIFVGIHGGLLTHASETFTDARNLVRAAARVAQNPAALIELRQTNNAQLSPDDVDRIINGYVAARRGRNSGVGFSSSGLEVHEHEMAKENLLIEGRNAAAVDVARAMNVPAAFIDATVGGTSLSYQNAASRMIELVTFGVEPLMSAIEARLNQPDMHADHLANPLKFDPAALLDAIPTTPTIGAQPHGENS” the entry was “not failed”.
